Test [1] has as its target HIV-1 Env of isolate 92WR021 (pseudovirus) (HIV-1). Nature of the test: cell-based or functional assay.
For test [2], the target named is HIV-1 Env of isolate 93UG077 (pseudovirus) (HIV-1). Nature of the test: cell-based or functional assay.
Test [3] addresses HIV-1 Env of isolate 92WR024 (pseudovirus) (HIV-1). Nature of the test: cell-based or functional assay.
Test [4] has as its target HIV-1 Env of isolate 92UG031 (pseudovirus) (HIV-1). The test can be described thus: cell-based or functional assay.
Test [5] has as its target HIV-1 Env of isolate MGRM-AE-005 (pseudovirus) (HIV-1). The test can be described thus: cell-based or functional assay.
Test [6] has as its target HIV-1 Env of isolate 92UG037 (pseudovirus) (HIV-1). The test can be described thus: cell-based or functional assay.
The target in test [7] is HIV-1 Env of isolate MGRM-AE-006 (pseudovirus) (HIV-1). Nature of the test: cell-based or functional assay.
For test [8], the target named is HIV-1 Env of isolate 92WR020 (pseudovirus) (HIV-1). The test can be described thus: cell-based or functional assay.
Test [9] addresses HIV-1 Env of isolate 93WR029 (pseudovirus) (HIV-1). The test can be described thus: cell-based or functional assay.
For test [10], the target named is HIV-1 Env of isolate MGRM-AE-004 (pseudovirus) (HIV-1). The test can be described thus: cell-based or functional assay.
The target of test [11] is HIV-1 Env of isolate 94UG103 (pseudovirus) (HIV-1). Nature of the test: cell-based or functional assay.
Test [12] addresses HIV-1 92RW020 Env (HIV-1). Nature of the test: cell-based or functional assay.
For test [13], the target named is WT JR-FL gp120 (HIV-1 JR-FL). The test can be described thus: ELISA, antigen-coated wells, mAb titrated; EC50 by nonlinear regression.
Test [14] deals with JR-FL gp120 ΔV1/ΔV2 (HIV-1 JR-FL). Described as above.
For test [15], the target named is HIV-1 Env of isolate PVO.4 (HIV-1). Nature of the test: cell-based or functional assay.
For test [16], the target named is HIV-1 Env of isolate 93IN905 (HIV-1). Nature of the test: cell-based or functional assay.
The target of test [17] is HIV-1 Env of isolate THR0.18 (HIV-1). Nature of the test: cell-based or functional assay.
The target of test [18] is HIV-1 Env of isolate TRJ04551.58 (HIV-1). The test can be described thus: cell-based or functional assay.
Test [19] addresses HIV-1 Env of isolate MGRM-D-019 (clade D pseudovirus) (HIV-1). Nature of the test: cell-based or functional assay.
For test [20], the target named is HIV-1 Env of isolate TRO.11 (HIV-1). Nature of the test: cell-based or functional assay.
The target in test [21] is HIV-1 Env of isolate VLGCB3 (HIV-1). The test can be described thus: cell-based or functional assay.
The target of test [22] is HIV-1 Env of isolate 97ZA012 (HIV-1). Nature of the test: cell-based or functional assay.
The target of test [23] is HIV-1 Env of isolate 92RW020 (clade A pseudovirus) (HIV-1). The test can be described thus: cell-based or functional assay.
For test [24], the target named is HIV-1 Env of isolate MGRM-Chronic-B-024 (HIV-1). Nature of the test: cell-based or functional assay.
Test [25] deals with HIV-1 Env of isolate 93MW959 (HIV-1). The test can be described thus: cell-based or functional assay.
In test [26] the target is HIV-1 Env of isolate SC422661.8 (HIV-1). The test can be described thus: cell-based or functional assay.
Test [27] has as its target HIV-1 Env of isolate 98IN022 (HIV-1). Nature of the test: cell-based or functional assay.
Test [28] addresses HIV-1 Env of isolate QH0692.42 (HIV-1). The test can be described thus: cell-based or functional assay.
Test [29] has as its target HIV-1 Env of isolate NL43 (HIV-1). The test can be described thus: cell-based or functional assay.

The results in this text go back to patent US20240132578A1.

4993_K13 (PGT-141) (antibody), sequence (VH): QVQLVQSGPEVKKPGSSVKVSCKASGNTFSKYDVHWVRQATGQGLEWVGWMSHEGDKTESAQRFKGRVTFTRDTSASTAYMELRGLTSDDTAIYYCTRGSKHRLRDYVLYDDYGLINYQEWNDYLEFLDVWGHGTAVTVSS
4993_K13 (PGT-141) (antibody), sequence (VL): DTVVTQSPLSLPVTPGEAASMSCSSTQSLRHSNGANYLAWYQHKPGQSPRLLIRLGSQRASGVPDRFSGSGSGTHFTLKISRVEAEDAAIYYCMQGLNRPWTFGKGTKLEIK
4980_N08 (PGT-143) (antibody), sequence (VH): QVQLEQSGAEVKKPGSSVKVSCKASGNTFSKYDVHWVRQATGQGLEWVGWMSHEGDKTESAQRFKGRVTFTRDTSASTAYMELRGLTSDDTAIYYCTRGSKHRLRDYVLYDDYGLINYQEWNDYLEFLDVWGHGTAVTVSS
4980_N08 (PGT-143) (antibody), sequence (VL): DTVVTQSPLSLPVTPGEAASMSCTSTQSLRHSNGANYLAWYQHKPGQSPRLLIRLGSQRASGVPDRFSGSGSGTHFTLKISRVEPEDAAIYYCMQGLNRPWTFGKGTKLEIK
4995_P16 (PGT-145) (antibody), sequence (VH): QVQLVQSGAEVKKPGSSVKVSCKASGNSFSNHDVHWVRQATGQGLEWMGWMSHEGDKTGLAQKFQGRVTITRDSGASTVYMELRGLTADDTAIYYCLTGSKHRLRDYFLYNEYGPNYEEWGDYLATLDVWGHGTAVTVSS
4995_P16 (PGT-145) (antibody), sequence (VL): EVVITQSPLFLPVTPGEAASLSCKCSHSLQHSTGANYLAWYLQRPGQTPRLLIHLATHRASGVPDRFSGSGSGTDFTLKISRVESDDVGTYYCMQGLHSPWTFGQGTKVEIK
4970_K22 (PGT-144) (antibody), sequence (VH): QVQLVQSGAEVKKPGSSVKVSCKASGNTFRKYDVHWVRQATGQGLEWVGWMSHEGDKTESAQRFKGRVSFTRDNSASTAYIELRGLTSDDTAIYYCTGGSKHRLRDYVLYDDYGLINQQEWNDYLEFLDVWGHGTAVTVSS
4970_K22 (PGT-144) (antibody), sequence (VL): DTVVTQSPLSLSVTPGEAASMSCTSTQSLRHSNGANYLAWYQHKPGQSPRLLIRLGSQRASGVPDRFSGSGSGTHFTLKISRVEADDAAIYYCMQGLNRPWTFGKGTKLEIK
4995_E20 (PGT-142) (antibody), sequence (VH): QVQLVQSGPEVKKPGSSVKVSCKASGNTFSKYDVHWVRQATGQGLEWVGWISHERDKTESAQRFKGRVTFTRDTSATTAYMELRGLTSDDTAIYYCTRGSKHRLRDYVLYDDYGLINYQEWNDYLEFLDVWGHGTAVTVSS

As for 4995_P16 (PGT-145) (antibody), the IC50 (µg/mL), single-round pseudovirus neutralization in test [1] was 1.62 µg/mL; in test [2], over 50 µg/mL; in test [3] it was 0.069 µg/mL; in test [4], 3.22 µg/mL; in test [5] it was 0.967 µg/mL; in test [6], 3.15 µg/mL. The IC50 (µg/mL), single-round pseudovirus neutralization is over 50 µg/mL in test [7]; 0.997 µg/mL in test [8]; over 50 µg/mL in test [9]; 0.006 µg/mL in test [10]; 0.331 µg/mL in [11].

4993_K13 (PGT-141) (antibody): the IC50 (µg/mL), single-round pseudovirus neutralization in [1] was over 50 µg/mL; in test [2], over 50 µg/mL; in test [3], 0.175 µg/mL; in test [4], 0.093 µg/mL; in [5], over 50 µg/mL; in test [6], 1.28 µg/mL. The IC50 (µg/mL), single-round pseudovirus neutralization in test [7] was over 50 µg/mL; in [8], over 50 µg/mL; in test [9] it was 0.019 µg/mL; in test [10] it was over 50 µg/mL; in test [11] it was over 50 µg/mL. Moreover, the IC50, pseudovirus neutralization in test [12] is over 10 µg/mL.

For the substance 4877_D15 (PGT-122) (antibody), the IC50 (µg/mL), pseudovirus neutralization in test [5], in [7] and in [10] was over 50 µg/mL in each case. Moreover, the IC50, pseudovirus neutralization in test [12] is 0.0072 µg/mL. The EC50 in test [13] and in test [14] was 0.3 µg/mL each time.

4858_P08 (PGT-123) (antibody): the IC50 (µg/mL), pseudovirus neutralization in test [5], in [7] and in test [10] was over 50 µg/mL throughout. This substance displayed an IC50, pseudovirus neutralization in [12] of 0.0038 µg/mL. Further, the EC50 came to 0.2 µg/mL in test [13] and 0.3 µg/mL in [14].

Turning to 1496_C09 (PG9) (TCN-109) (antibody), the IC50 (µg/mL), pseudovirus neutralization in [15] came to 24.8 µg/mL; in test [16] it was 0.035 µg/mL; in [17] it was 26.4 µg/mL; in test [18], 0.858 µg/mL; in [20], 16.9 µg/mL; in test [21], 0.022 µg/mL. For the same substance, the IC50 (µg/mL), pseudovirus neutralization in test [22] came to 3.4 µg/mL; in [5] it was 0.282 µg/mL; in test [7], 0.063 µg/mL; in [24], 0.222 µg/mL; in test [25], 0.054 µg/mL; in [10], 0.009 µg/mL. Also, the IC50 (µg/mL), pseudovirus neutralization amounted to 1.48 µg/mL in [26] and 0.003 µg/mL in test [27]. Besides, the values for the IC50, pseudovirus neutralization in [19] and in [12] were 0.03 µg/mL and 0.161 µg/mL, respectively. This substance also displayed an IC50 (µg/ml), pseudovirus neutralization in test [23] of 0.08 µg/mL.

With 5145_B14 (PGT-127) (antibody), the IC50 (µg/mL), pseudovirus neutralization in test [5], in [7] and in test [10] was over 50 µg/mL each time. The EC50 amounted to 0.1 µg/mL in test [13] and 0.7 µg/mL in test [14].

In the case of 5141_B17 (PGT-126) (antibody), the values for the IC50 (µg/mL), pseudovirus neutralization in [5], in test [7] and in test [10] were 0.324 µg/mL, 17.3 µg/mL and over 50 µg/mL, respectively. The substance further displayed an IC50, pseudovirus neutralization in test [12] of 0.0046 µg/mL. In addition, the EC50 in [13] is 0.1 µg/mL; in [14], 0.3 µg/mL.

As to 4995_E20 (PGT-142) (antibody), the IC50 (µg/mL), single-round pseudovirus neutralization in test [1] is over 50 µg/mL; in test [2], over 50 µg/mL; in [3], 0.069 µg/mL; in test [4] it was 0.05 µg/mL; in test [5], over 50 µg/mL; in test [6], 0.557 µg/mL. The IC50 (µg/mL), single-round pseudovirus neutralization in test [7] is over 50 µg/mL; in [8], 31.5 µg/mL; in [9], 0.014 µg/mL; in test [10], 0.001 µg/mL; in test [11], over 50 µg/mL. This substance displayed an IC50, pseudovirus neutralization in test [12] of over 10 µg/mL.

As to PGV04 (antibody), the IC50 (µg/mL), pseudovirus neutralization in test [15] is 0.454 µg/mL; in test [16], 0.332 µg/mL; in test [17], over 50 µg/mL; in test [18], 0.028 µg/mL; in test [20], 0.121 µg/mL; in [28], 1.9 µg/mL. Besides, the IC50 (µg/mL), pseudovirus neutralization is 0.045 µg/mL in test [21]; 0.028 µg/mL in [29]; 0.041 µg/mL in test [22]; 0.051 µg/mL in test [5]; over 50 µg/mL in test [7]; 2.52 µg/mL in test [24]. In addition, the IC50 (µg/mL), pseudovirus neutralization is over 50 µg/mL in test [25], 0.183 µg/mL in test [10], 0.11 µg/mL in test [26] and 5.69 µg/mL in test [27].

As to 5123_A06 (PGT-125) (antibody), the IC50 (µg/mL), pseudovirus neutralization in test [5] was 0.01 µg/mL; in [7], 0.009 µg/mL; in test [10], over 50 µg/mL. The same substance returned an IC50, pseudovirus neutralization in [12] of 0.0028 µg/mL. Also, the figures for the EC50 in test [13] and in test [14] were 0.2 µg/mL and 0.6 µg/mL, respectively.

In the case of 4970_K22 (PGT-144) (antibody), the IC50 (µg/mL), single-round pseudovirus neutralization was over 50 µg/mL in [1]; over 50 µg/mL in [2]; 16.3 µg/mL in [3]; 2.17 µg/mL in test [4]; over 50 µg/mL in test [5]; 8.24 µg/mL in test [6]. In addition, the IC50 (µg/mL), single-round pseudovirus neutralization in test [7] was over 50 µg/mL; in test [8], over 50 µg/mL; in test [9], 4.39 µg/mL; in test [10], 0.104 µg/mL; in test [11] it was over 50 µg/mL. Also, the IC50, pseudovirus neutralization in test [12] is over 10 µg/mL.

Consider 4980_N08 (PGT-143) (antibody), for which the IC50 (µg/mL), single-round pseudovirus neutralization was over 50 µg/mL in test [1]; over 50 µg/mL in [2]; 0.122 µg/mL in test [3]; 0.095 µg/mL in test [4]; over 50 µg/mL in [5]; 0.854 µg/mL in test [6]. Moreover, the IC50 (µg/mL), single-round pseudovirus neutralization in test [7] was over 50 µg/mL; in [8], over 50 µg/mL; in [9], 0.053 µg/mL; in test [10], 0.002 µg/mL; in [11] it was over 50 µg/mL. This substance also yielded an IC50, pseudovirus neutralization in test [12] of over 10 µg/mL.

With 4838_L06 (PGT-121) (antibody), the EC50 in [13] and in test [14] was 0.2 µg/mL in each case.
